{"source": "paper PMC7515715", "about": "(Nucleic Acids Research, 2020)", "proteins": {"B1": {"name": "E. coli stringent starvation protein A (SspA), wild type (natural protein)", "chain": "MAVAANKRSVMTLFSGPTDIYSHQVRIVLAEKGVSFEIEHVEKDNPPQDLIDLNPNQSVPTLVDRELTLWESRIIMEYLDERFPHPPLMPVYPVARGESRLYMHRIEKDWYTLMNTIINGSASEADAARKQLREELLAIAPVFGQKPYFLSDEFSLVDCYLAPLLWRLPQLGIEFSGPGAKELKGYMTRVFERDSFLASLTEAEREMRLGRS"}}, "molecular_target": "the molecule itself", "experiment": "cryo-EM structure", "data": [{"protein": "B1", "values": [{"measurement": "stoichiometry N", "value": 2}]}]}
